Results on 23 sequences are retold here after the DeepSol protein solubility set.

This data set is described as follows: soluble on expression in E. coli; label from the status in PepcDB or PDB records.
In the case of “SLSSTQSVNSVLAPGNLRKVHHIALNVQDMQASRYFYGTILGLHELTDDEVPATLTELVASGKVANFITPDGTILDLFGEPELSPPDPNPEKTFTRAYHLAFDIDPQLFDRAVTVIGENKIAIAHGPVTRPTGRGVYFYDPDGFMIEIRCDPEAEG”, the “soluble on expression in E. coli” value is “soluble”. Turning to “MWQQAIGDALGITARNLKKFGDRFPHVSDGSNKYVLNDNTDWTDGFWSGILWLCYEYTGDEQYREGAVRTVASFRERLDRFENLDHHDIGFLYSLSAKAQWIVEKDESARKLALDAADVLMRRWRADAGIIQAWGPKGDPENGGRIIIDCLLNLPLLLWAGEQTGDPEYRRVAEAHALKSRRFLVRGDDSSYHTFYFDPENGNAIRGGTHQGNTDGSTWTRGQAWGIYGFALNSRYLGNADLLETAKRMARHFLARVPEDGVVYWDFEVPQEPSSYRDSSASAITACGLLEIASQLDESDPERQRFIDAAKTTVTALRDGYAERDDGEAEGFIRRGSYHVRGGISPDDYTIWGDYYYLEALLRLERGVTGYWYERGR”, the “soluble on expression in E. coli” value is “soluble”. With “MPSYTLTQLASAVRNCLESGFPGRYWVSAETSGVRVGISGHCYLELLDKDTSGSQVTARMKAMIWASDYATLSGRFQRETGETFDSGLHVLVLVSVSYHEQYGLSLRILDIDPSYTMGAMARKRKEIIEELRRQGLYDLNRSLSLPRPTQRIAIVSSGAAAGFEDFIAHLSHSAEHFCFYPVLFQAVMQGAQTEASVLGALERIAYHRDSFDVVVIIRGGGAVSELAAFDSLAIGQACARFPLPILTGIGHDRDETVVDLVAYRSLKTPTAVADFLVNCQREEWKLIDDLRSRAAEGLRMMMMYCHERLIQLSLRTPAILKSSVREEHHRIKSVEDRIRLAAKQRIAFGLQQLQIASRSLPALMKSELKQNTGQLDQVAARLPLLVTANLKNYNRRLETNEQAIRLLHPNATLRRGFAIVLKDDKAIRSHSELHKGDHLVAQFADGSVSAVVDQPQKGKH”, the “soluble on expression in E. coli” value is “not soluble”. The same measure for “MPSAHSVKLRPLEREDLRYVHQLDNNASVMRYWFEEPYEAFVELSDLYDKHIHDQSERRFVVECDGEKAGLVELVEINHVHRRAEFQIIISPEYQGKGLATRAAKLAMDYGFTVLNLYKLYLIVDKENEKAIHIYRKLGFSVEGELMHEFFINGQYRNAIRMCIFQHQYLAEHKTPGQTLLKPTAQLEHHHHHH”: “not soluble”; for “MAAAAVSSAKRSLRGELKQRLRAMSAEERLRQSRVLSQKVIAHSEYQKSKRISIFLSMQDEIETEEIIKDIFQRGKICFIPRYRFQSNHMDMVRIESPEEISLLPKTSWNIPQPGEGDVREEALSTGGLDLIFMPGLGFDKHGNRLGRGKGYYDAYLKRCLQHQEVKPYTLALAFKEQICLQVPVNENDMKVDEVLYEDSSTA”: “soluble”. For the sequence “MSFESNQLMPIAALRGGPGTPAADVLTAFALRRKAEGIDVVGVIVPPEDAGSGHQGHGHGEGHGGGHEGCECRSELIDIATGDRYAMHQDLGSGSQACNLNSSSLALAAGAVERAVARKPALVVLSRFGGQEAVRGGLMSAFQAAIAAGVPVACVVTPKAEDVWNDFAQGLSVSLPPEADALEAWWRDHARGRNAALEHHHHHH”, the “soluble on expression in E. coli” value is “not soluble”. With “MENKKNDNQQPTVASAHHPFYLGEMKKGMFACWTVTTQCCDDTKVTILDDTGKVYATYTKAFTQSHNLTLLGQGNAIIEGNELRVYVDSSMSSQLIASTNTHLINDLNARKVGAVTDICIEDQTDNDFNDVYINVVAWNKKG”, the “soluble on expression in E. coli” value was “not soluble”. With “MGSDKIHHHHHHLKQLLLDIQPPAAPSLDNFVTGRNAEALFQLRRTVLEHDDARFIYLWGETGCGKTHLIQACNALASASGLDMICVDDVHLLSNDDQVALFDLYNQLRESGGRLIVSGLAAPSQMGLRDDLATRLAWGLSYQLHPLSDEEKTQALKNHAEARGMKLPDEVLDYCLRHLRRDMPSLIATIDALDEWSLISKRAVTLPLLKQLLQTST”, the “soluble on expression in E. coli” value is “not soluble”. Turning to “MAHHHHHHMPPLRGAGRGRNKTGTVPTARTNGGFKAKGSVKPRTFDEYYGEIYGARWHTLRTAMMEAPRKVALWNRFSQVPFEEATRGLSRVEPNSLIQAFQPTQTANSTEAVSTADRGINDDDEAKLQGKALAAAADDLLHRNGVIDKPPIDAFGIKAYYLLDYASAHVVEQLQVGAFDTVLDMCAAPGGKSIAVAQFLSPDGALTCNEARADRCARLRRNLQEHVPVNYVPWRTTQRDAQTWYDPGAFSRVLVDAPCSSERHLLQQSGGSPLSLREWSEETTVQLAALQRMLLQRAIETCRVGGRIVYSTCSISPLENDGVVGEVLQRTRCEVKVIKTSPAAAAAAPVALPKTATDAGESDASGAEACAPHTPTVLGEATAYGRLLLPDTCHGWGPMFLCVLEKTAEHKDVSSSSEDDDE”, the “soluble on expression in E. coli” value was “not soluble”. The same measure for “MRYTDSRKLTPETDANHKTASPQPIRRISSQTLLGPDGKLIIDHDGQEYLLRKTQAGKLLLTK”: “soluble”. With “MPVTNMAELDAMIARVKKAQEEFATYSQEQVDKIFRAASLAANQARIPLAQQAVEESGMGIVEDKVIKNHFASEFIYNKYKDEQTCGILEEDDNLGTMTIAEPVGIICGIVPTTNPTSTAIFKSLISLKTRNGIIFSPHPRAKNSTNDAAKLVLDAAVAAGAPKDIIGWIDQPSVELSNALMKHDDIALILATGGPGMVKAAYSSGKPAIGVGAGNVPVVIDETADIKRAVASVLMSKTFDNGVVCASEQAVIVVDEVYDEVKERFASHKAHVLSKTDADKVRKVLLIDGALNAKIVGQPATAIAEMAGVKVPADTKVLIGEGLGKVSYDDAFAHEKLSPTLGMFRADNFEDAVAQAVTMVEIGGIGHTSGLYTNQDVNADRIRYFGDKMKTARILINIPTTHGGIGDLYNFNVAPSLTLGCGSWGGNSISENVGPKHLINKKTVAKRAENM”, the “soluble on expression in E. coli” value is on record as “soluble”. Take “MPEILKIKPTRMELLKLKRRVKLAERGHKLLKEKQDALIMEFFTIYDEALSLRRELIRKMEEAFNSLRRAQVDVGALRLKEIAIGVKPNKEIEIKTRNIMGVRVPLIEVPELKRKASERGYAFVSTTSTVDMAAEKFEEVLELAIRLAEVEESLKRLGKEIEKTKRRVNALEYIIIPRMENTIKFIEQHLDEMERENFFRLKRVKAILEARQSMLEHHHHHH”: the “soluble on expression in E. coli” value is reported as “soluble”. In the case of “MLVPGRVYLFRIPEGKEIIEFLREFAEKENIKVGIISAIGTLRNPVIGYFMEEEKKYKEISLTGTYELLSLSGNISLKDGKPFVHAHVVLGDSEGRAFGGHLVRGEVFVAEVFVQELEGETLERKPTEHGLALWLEHHHHHH”, the “soluble on expression in E. coli” value is recorded as “not soluble”. Take “MPKTEDKYLPLMSKEKIEKALAFHKSFPQYSETPLAELNHMAAYLGLNDFFVKDESYRFGLNAFKVLGGSFAMANYIAEKLKKDVSELTYDELTSDQLRSAFGQATFFTATDGNHGRGVAWAANKLGQKSVVLMPKGSTQTRKENIEKEGATVTIEEVNYDECVRMANKMAEETENGVMVQDTAWDGYEKIPTWIMQGYGTMALEASQQLRKFGSERPSHVFVQAGVGSLAGAVIGYFANAFPENPPIMVVVEAQAADCLYQSAIKKDGEIRFVDGDLQTIMAGLACGEPNTISFDILKNHTSFFVSAPDWVSEKGMRMLGAPLKGDPQVVSGESGAVAMGLVATVMQDPDYQELHEALQLDETSNVLMFSTEGDTDPDNYKKILWR”: the “soluble on expression in E. coli” value was “not soluble”. Turning to “MLTEQQRRELDWEKTDGLMPVIVQHAVSGEVLMLGYMNPEALDKTIESGKVTFFSRTKQRLWTKGETSGNFLNVVNIAPDCDNDTLLVLANPIGPTCHKGTSSCFGDTAHQWLFLYQLEQLLAERKSADPETSYTAKLYASGTKRIAQKVGEEGVETALAATVHDRFELTNEASDLMYHLLVLLQDQDLDLTTVIENLRKRHQ”, the “soluble on expression in E. coli” value was “not soluble”. Consider “MEKVYGLIGFPVEHSLSPLMHNDAFARLGIPARYHLFSVEPGQVGAAIAGVRALGIAGVNVTIPHKLAVIPFLDEVDEHARRIGAVNTIINNDGRLVGYNTDGLGYVQALEEEMNITLDGKRILVIGAGGGARGIYFSLLSTAAERIDMANRTVEKAERLVREGDERRSAYFSLAEAETRLAEYDIIINTTSVGMHPRVEVQPLSLERLRPGVIVSDIIYNPLETKWLKEAKARGARVQNGVGMLVYQGALAFEKWTGQWPDVNRMKQLVIEALRR”, for which the “soluble on expression in E. coli” value was “soluble”. In the case of “LSAPDSITVTVADHNGVAVLSIGGEIDLITAAALEEAIGEVVADNPTALVIDLSAVEFLGSVGLKILAATSEKIGQSVKFGVVARGSVTRRPIHLMGLDKTFRLFSTLHDALTGVRGGRIDR”, the “soluble on expression in E. coli” value is recorded as “soluble”.

With “MKVDLNSDLGESFGRYKLGLDDEVMKYITSANVACGWHAGDPLVMRKTVRLAKKNNVQVGAHPGYPDLMGFGRRYMKLTPEEARNYILYQIGALYAFVKAEGLELQHVKPHGALYNAMVKEEDLARAVIEGILDFDKRLIVVTLAGSRVVEIAREMGARVAQEGFADRAYNPDGTLVPRSRPGAVIEDKEEIAERVISMVKDGGIRAINGEWIELEVDTICVHGDNPKAVEITAYIRRRLEEEGVKVLPMGDFIK”, the “soluble on expression in E. coli” value is listed as “soluble”. For “MYNFFRTVPRANRNEITFYPDYEEEGQKKKKTRSMFSWLGGDSSKKKNKEVLETVSEGLRKIYKQKLLPLEEFHKFHDFHSPALDDPDFDAKPMILLVGQYSTGKTTFIRYLLESDFPGIRIGPEPTTDRFIAVMHGDEEGSIPGNALVVDAKKQFRALSGFGNAFLNRFQCSTLPNQVLESVTIVDTPGILSGEKQRIDRGYDFTGVLEWFAERVDRIILLFDAHKLDISDEFKRCIEALAGNEDKIRIVLNKSDMVDHQQLMRVYGALMWSLGKVFKTPEVSRVYLGSFWDHPLHYDLNRRLFQDEQHDLFQDLQALPRNAALRKLNDLIKRARLAKVHAYIIAELRKQMPSMIGKDKKKKDLIQNLDKIYEQLQREHNISPGDFPDVNKMREKLQTQDFSKFNPLKPKLLEVVDGMLATDIARLMAQIPKEEAAAPAGSNGSADPTVRGGAFSQTTEAETPFGFGRGEGFDKGADEAEWVVSRERTTADSTFESLGPVNGYLSGRAAKEHMVKSKLPNSVLGKVWKLADIDKDGQLDADEFALANYLINLKLEGHEIPSELPKHLIPPSKRGEQDPVYPSLNDNDE”, the “soluble on expression in E. coli” value is given as “soluble”. Consider “MSTEIKTLKPQAVWEYFYDLTQIPRPTGQMDEVTKYVFDFGKRLGLETEQDEVGNVIIRKPATPGMENKPIVTLQSHLDMVPQKNSDIDHDFTKDPIDAYIDGEWVKARG”, for which the “soluble on expression in E. coli” value is on record as “not soluble”. On to “MGSDKIHHHHHHMMPELKSALYAGKVMHQRLKPRRHRLSYRIFFLLLDLDEIDAMSKRLRLLSHNRFNLFGFADADHGDGSGGSLKAYVEDMLKTAGIETDAGPIRLLSMPRMLGYAFNPISIYFCHSRQGDLVAILYEVNNTFGQRHSYLIPVGERHDETVRQHCDKRFYVSPFMAMGLNYRFRIGLPGENVAIHITASDDQGPLMVASFAGKRRALSDASLLRAFISYPLLTLKVTAGIHWEALRLWAKGIRLQERPAPPHNSITHVAMHGRLRRKAEPDVI”, for which the “soluble on expression in E. coli” value is given as “not soluble”. In the case of “GSHMGGRLEGLTQDLRQLQESEQQLDHLMNICTTQLRLLSEDTDSQRLAYVTCQDLRSIADPAEQMVMVIKAPPETQLQAVDSSENFQISLKSKQGPIDVFLCPEE”, the “soluble on expression in E. coli” value is “soluble”. Consider “MQEQIQEYAKRLKLSWIRENYREVEAANTEEYLLKLFEKEIEQREERKINLLFKAATLPNVSGKPFDWKDIQLGQGLSQQSLLDGEFIESKENMVFYGGVGAGKTYLSTLIGMNAIQKYGKRVKFYTIASLANELLEANDKGNLNKLFKKIEKLDLLILDELGYIPLHKHGAELLFQVISLCYEKRSIIITTNLQFGQWNHVFGDPILTEAVVDRLIHHSHLVIFGGDSNRMKKSFLLNNMLEHHHHHH”, for which the “soluble on expression in E. coli” value was “soluble”.
